Data set [1] deals with RILPL2 RH1-cc (Homo sapiens) (UniProt Q969X0). The experiment in a line: ITC. The conditions noted are these: cited from earlier work.
Data set [2] deals with the molecule itself. Nature of the data set: SEC-MALS; Superdex 200 10/300 GL increase, 20 mM Hepes pH 7.5, 200 mM NaCl, 0.5 ml/min; oligomeric state of the fragment.
Data set [3] has as its target T1, human myosin 5a globular tail domain (GTD; residues 1463-1855) (human, UniProt Q9Y4I1 1463-1855).
T1 construct: myosin 5a (myo5a), human, globular tail domain, residues 1463-1855; pProEx HTB vector with N-terminal 6x Histidine tag and a rTEV cleavage site; the methods describe no cleavage step; also called myo5a-GTD; myo5A-GTD; source: E. coli Rosetta, purified (His-Trap, Superdex 75 gel filtration)
Nature of the data set: MST; 25 nM Blue-NHS-labelled JIP3 fragment, myo5a-GTD titrated (16 1:1 dilutions); 20 mM hepes pH 7.5, 150 mM NaCl, 2 mM MgCl2, 0.5 mM TCEP, 0.05% tween; 25 °C; three independent replicates. The conditions noted are these: both partners purified.

Data set [4] concerns the molecule itself. Nature of the data set: AUC; sedimentation velocity with fluorescence detection (SV-FDS), 20 °C, 50,000 rpm; dilution series of Blue-NHS-labelled fragment (RH1-LZI 460 nM to 1.1 nM; LZI 770 nM to 2.4 nM; above 60 nM mixed with unlabelled protein); dimer to monomers.
Data set [5] has as its target T1, human myosin 5a globular tail domain …. The experiment in a line: AUC; sedimentation velocity, absorbance at 280 nm, 20 °C, 42000 rpm; 20 mM Hepes pH 7.5, 150 mM NaCl, 2 mM MgCl2, 1 mM TCEP; mixtures 22.5 uM JIP3-RH1-LZI + 7.5 uM myo5a-GTD and 7.5 uM JIP3-RH1-LZI + 22.5 uM myo5a-GTD. The settings on record: both partners purified.

T1 sequence (Q9Y4I1 1463-1855): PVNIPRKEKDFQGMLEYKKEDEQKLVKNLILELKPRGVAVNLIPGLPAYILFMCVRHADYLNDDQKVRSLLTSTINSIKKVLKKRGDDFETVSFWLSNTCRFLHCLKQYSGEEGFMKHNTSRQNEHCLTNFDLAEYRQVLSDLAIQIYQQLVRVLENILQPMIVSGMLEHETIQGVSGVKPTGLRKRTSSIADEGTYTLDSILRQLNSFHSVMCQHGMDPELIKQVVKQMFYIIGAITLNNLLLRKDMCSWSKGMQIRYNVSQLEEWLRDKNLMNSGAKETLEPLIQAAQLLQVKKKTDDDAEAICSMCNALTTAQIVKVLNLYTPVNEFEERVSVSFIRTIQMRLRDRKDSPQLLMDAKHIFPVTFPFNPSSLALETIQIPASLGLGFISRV
Chain of RILPL2 RH1-cc (Homo sapiens) (Q969X0 1-97): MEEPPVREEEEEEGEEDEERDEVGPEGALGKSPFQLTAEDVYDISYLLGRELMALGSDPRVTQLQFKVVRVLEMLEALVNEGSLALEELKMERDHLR

In the case of myosin Va GTD (from UniProt Q9Y4I1), the Kd in data set [1] was 300 nM.

B1: RH1-lz3 fragment of JIP3 (residues 22-100) (domain or fragment, mouse, UniProt Q9ESN9-1 22-100, looked up)
chain: GSVMSERVSGLAGSIYREFERLIHCYDEEVVKELMPLVVNVLENLDSVLSENQEHEVELELLREDNEQLLTQYEREKAL
modifications: labelled with Protein Labeling Kit Blue-NHS in the MST experiment only
notes: cloned, expressed and purified similarly as the other JIP3 fragments, which are of mouse JIP3 NP_038959.2; also called JIP3-RH1-lz3; JIP3-RH1-Lz3; source: E. coli Rosetta, purified similarly as the other JIP3/4 fragments; not shown: His-thioredoxin, N-terminal, cleaved
In the case of B1, in data set [2], the “stoichiometry N” value was found to be 2. In data set [3], this molecule yielded a Kd of 2200 ± 500 nM.

B2: LZI fragment of JIP3 (residues 71-187) (domain or fragment, mouse, UniProt Q9ESN9-1 71-187, looked up)
chain: SENQEHEVELELLREDNEQLLTQYEREKALRKQAEEKFIEFEDALEQEKKELQIQVEHYEFQTRQLELKAKNYADQISRLEERESEMKKEYNALHQRHTEMIQTYVEHIERSKMQQV
modifications: labelled with Monolith NT.115 Protein Labelling Kit BLUE NHS in the SV-FDS experiments only
notes: also called JIP3-LZI; LZ1 fragment; not shown: His-thioredoxin, N-terminal, cleaved
With B2, in data set [2], the “stoichiometry N” value came to 2. Besides, the equilibrium dissociation constant (Kd) in data set [4] is 110 nM.

B3: RH1-LZI fragment of JIP3 (residues 22-187) (domain or fragment, mouse)
chain: GSHGSVMSERVSGLAGSIYREFERLIHCYDEEVVKELMPLVVNVLENLDSVLSENQEHEVELELLREDNEQLLTQYEREKALRKQAEEKFIEFEDALEQEKKELQIQVEHYEFQTRQLELKAKNYADQISRLEERESEMKKEYNALHQRHTEMIQTYVEHIERSKMQQV
modifications: labelled with Monolith NT.115 Protein Labelling Kit BLUE NHS in the SV-FDS experiments only
notes: Gly-Ser-His residues remaining after the thrombin cleavage; The construct is mouse JIP3; Results and modelling speak of human JIP3 (NP_055948.2); also called JIP3-RH1-LZI; RH1-LZI tandem of JIP3; not shown: His-thioredoxin, N-terminal, cleaved
Take B3: the “stoichiometry N” value in data set [2] is 2. Also, in data set [5], the binding result is reported as “binds”. For the same molecule, in data set [4], the Kd was less than 1 nM.

Source of the values: article PMC6831827, “Structural characterization of the RH1-LZI tandem of JIP3/4 highlights RH1 domains as a cytoskeletal motor-binding motif” (Scientific Reports, 2019).
